Test results: PMC2425476 (Nucleic Acids Research, 2008)
Like-named read-outs stand apart in the source and are kept apart here.

Tests used:
[1] = target: the molecule itself
[2] = target: δW279A-γ complex;β clamp (Escherichia coli;Escherichia coli, UniProt P06710-2;P28630;P28631;P28905;P28632;P0A988 1-431;1-343;1-334;1-147;1-137;1-366, W279A|); assay: fluorescence anisotropy
[3] = target: γ complex (clamp loader, γ3δδ'χψ), wild type;β clamp (Escherichia coli;Escherichia coli, UniProt P06710-2;P28630;P28631;P28905;P28632;P0A988 1-431;1-343;1-334;1-147;1-137;1-366, |); assay: fluorescence anisotropy
[4] = target: T1, δW279Y-γ complex;β clamp (Escherichia coli;Escherichia coli, UniProt P06710-2;P28630;P28631;P28905;P28632;P0A988 1-431;1-343;1-334;1-147;1-137;1-366, W279Y|); assay: fluorescence anisotropy
[5] = target: δW279A/R283A-γ complex;β clamp (Escherichia coli;Escherichia coli, UniProt P06710-2;P28630;P28631;P28905;P28632;P0A988 1-431;1-343;1-334;1-147;1-137;1-366, W279A;R283A|); assay: fluorescence anisotropy
[6] = target: δW279A/R277A-γ complex;β clamp (Escherichia coli;Escherichia coli, UniProt P06710-2;P28630;P28631;P28905;P28632;P0A988 1-431;1-343;1-334;1-147;1-137;1-366, R277A;W279A|); assay: fluorescence anisotropy
[7] = target: T1, δW279Y-γ complex;β clamp; assay: fluorescence anisotropy; remark: listed apart in the source

Row | Binder | binding result [1] | Kd [2] [nM] | Kd [3] [nM] | Kd [4] [nM] | binding result [5] | binding result [6] | Kd [7] [nM]
1 | γ subunit of the E. coli clamp loader (γ complex) (natural protein) MSYQVLARKWRPQTFADVVGQEHVLTALANGLSLGRIHHAYLFSGTRGVGKTSIARLLAKGLNCETGITATPCGVCDNCREIEQGRFVDLIEIDAASRTKVEDTRDLLDNVQYAPARGRFKVYLIDEVHMLSRHSFNALLKTLEEPPEHVKFLLATTDPQKLPVTILSRCLQFHLKALDVEQIRHQLEHILNEEHIAHEPRALQLLARAAEGSLRDALSLTDQAIASGDGQVSTQAVSAMLGTLDDDQALSLVEAMVEANGERVMALINEAAARGIEWEALLVEMLGLLHRIAMVQLSPAALGNDMAAIELRMRELARTIPPTDIQLYYQTLLIGRKELPYAPDRRMGVEMTLLRALAFHPRMPLPEPEVPRQSFAPVAPTAVMTPTQVPPQPQSAPQQAPTVPLPETTSQVLAARQQLQRVQGATKAKKE | binds | – | – | – | – | – | –
2 | 30 nt/55 nt p/tDNA (mixed, 5' amino linker on template (S2)) DNA 1: TGAGCGTTTTTCCTGTTGCAATGGCTGGCGGTAATATTGTTCTGGATATTACCAG DNA 2: CTGGTAATATCCAGAACAATATTACCGCCA | – | 590 ± 80 | 60 ± 10 | 159 ± 15 | no binding | no binding | ~800
